Test results from the nanobody polyreactivity screen of Harvey et al. (2022).

Experiment: yeast display, Sf9 membrane polyspecificity reagent, FACS + sequencing; frameworks hold sequencing errors
Procedure, shortened: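 Polyreactivity labels are assigned by the sorting gate from which each nanobody was recovered. The gates were low and high (top ~1%), set on anti-HA fluorescence for expression and streptavidin fluorescence for reagent binding. Before sorting, galactose-induced (36–48 hours) yeast display cells were stained for 1 hour at 4 °C with 10% biotinylated, detergent-solubilized Sf9 membrane reagent.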

Row | Sequence | polyreactivity (PSR sort gate)
1 | QVQLVESGGGLVQAGGSLRLSCPASGSTFGPYAMGWYRQAPGKERELVAAISSTGGSTYYADSVKGRFTISRDNAKNTVYLQMNSLKPEDTAVYYCAAYSTYARGYWGQGTQVTVSS | high polyreactivity
2 | QVQLVESGGGLVQAGGSLRLSCPASGSTFSYNMGWYRPAPGKERELVAAISGSGGSTYADSVKGRFTISRDNAKKTVYLQMNSLKPEDTAVYYCATVRYWVHEYGFWGLGTQVTVSS | high polyreactivity
3 | QVQLVESGGGLVQAGGSLRLSCPASGSTFTLYVMGWYRPAPGKERELVAAISSNGGRTYYADSVKGRFTISRDNAKNTVYLQMNSLKPEDTAVYDCAAGKIGRYHYDYWGQGTQVTVSS | high polyreactivity
4 | QVQLVESGGGLVQAGGSLRLSCPASGSTFWYYAMGWYRQAPGKERELVAAITRGGSTNYADSVKGRFTISRDNAKNTVYLQMNSLKPEDTAVYYCAKDGPQYRYYYWGQGTQVTVSS | high polyreactivity
5 | QVQLVESGGGLVQAGGSLRLSCPASGSTIDPNARGWYRQAPGNERELVAAISYTGGRTYYADSVKGRFTISRDNAKNTVYLQMNSLKPEDTAVYYCAVLVVGATTQDEPYFSGVEHDYWGQGTQVTVSS | low polyreactivity
6 | QVQLVESGGGLVQAGGSLRLSCPASGYIFYRNAMVWYRQAPGKERELVAAITYTGGRTYYADSVKGRFTISRDNAKNTVYLQMNSLNPEDTAVYYCNADGRVFVVRPYYDYEYWGQGTQVTVSS | low polyreactivity
7 | QVQLVESGGGLVQAGGSLRLSCSASGFIFRYNAMGWYRQAPGKEREFVAAISQGGASTYYADSVKGRFTISRDNAKNTVYLQMNSLKPEDTAVYYCNAVVDTSKYTDYYWGQGTQVTVSS | low polyreactivity
8 | QVQLVESGGGLVQAGGSLRLSCSASGFIFWYNAMGWYRQAPGKERELVAAISWSGGRTYYADSVKGRFTISRDNAKNTVYLQMNSLKPEDSAVYYCAAKVPRSSRSYGYWGQGTQVTVSS | high polyreactivity
9 | QVQLVESGGGLVQAGGSLRLSCSASGFIFWYYAMGWYRQAPGKERELVAAISSGGSTNYADSVKGRFAISRDNAKNTVYLQLNSLIPVDTAVYYCATSSIWGSARVRWVTYYYWGQGTQVTVSS | low polyreactivity
10 | QVQLVESGGGLVQAGGSLRLSCSASGFIFYSYAMGWSRPAPGKEREFVAAISRSGGITYYADSVKGRFTISRDNAKNTVYLQMNSLKPEDTAVYYCAKVGRAVSSIKDMDSWGQGTQVTVSS | high polyreactivity
11 | QVQLVESGGGLVQAGGSLRLSCSASGFTFRSYAMGWYRQAPGEEREFVAAISRRGDSTYYADSVKGRFTISRDNAKNTVYLQMNSLKPEDTAVYYCAKYGIASRYSRFDSWGQGTQVTVSS | high polyreactivity
12 | QVQLVESGGGLVQAGGSLRLSCSASGFTFRTYAMGWYRQAPGKETELVAAISRDGSSTYYADSVKGRFTISRDNAKNTVYLQLKSLKPEDTAVYYCAARIIRFYTSADKLVTSRYYYWGQGTQVTVSS | high polyreactivity
13 | QVQLVESGGGLVQAGGSLRLSCSASGGIFSAYAMGWYRQSPGKERELVAAISRTGGSTYYADSVKGRFTISRDNAKNTVYLQMNSLKPEDTAVYYCNAVYRRYPEFDYWGQGTQVTVSS | high polyreactivity
14 | QVQLVESGGGLVQAGGSLRLSCSASGHIFRTYAMGWYRQAPWKERELVAGITPNGDTTYYADSVKGRFTISRDHAKITVYLQMNSLKPEDTAVYYCDAQYSQRPADRYNSWGQGTQVTVSS | low polyreactivity
15 | QVQLVESGGGLVQAGGSLRLSCSASGITFGTYAMGWYRQAPGKERELVASITYGGTNTYYADSVKGRFTISRDNAKNTVCLQMNSLKPEDTAVYYCNADPAVSRGSIATDDYDYWVQGTQVTVSS | low polyreactivity
16 | QVQLVESGGGLVQAGGSLRLSCSASGITFLANAMAWYRPATGKERELVATITSRGASSYYADSVKVRFTISRDNAKNTVYLQMNSLKPEDTAVYYCAATVRRRYERYNDWAQGTQVTVSS | high polyreactivity
17 | QVQLVESGGGLVQAGGSLRLSCSASGITFNANAMGWYRQATGKERELVAAISLSGGRTYYADSVKGRFTISRDNAKNTVYLQMNSLKPEDTAVYYCKVLGNYYGKFDYWGQGTQVTVSS | high polyreactivity
18 | QVQLVESGGGLVQAGGSLRLSCSASGITFWYNAMEWYRQAPGKERELVAAISRSAGSTYYADSVKGRFTISRDNAKNTVYLQMNSLKPEDTAVYYCAAKTPGRYYYWGQGTQVTVSS | high polyreactivity
19 | QVQLVESGGGLVQAGGSLRLSCSASGLTLKRYAMGWYRQAPGQERELVAAISKSGGSTYYADSVKGRFTISRDNAKNTVYLQMNSLKPEDTAVYYCAADSYNLWDDYWGQGTQVTVSS | low polyreactivity
20 | QVQLVESGGGLVQAGGSLRLSCSASGRIFRYNGKGWYRQAHGKERELVAVITHRSGTTSYADSVKGRFTISRDNAKNTVYLQMNSLKPEDTAVYYCARGYYKPSVGKSKRVGGNYLGQGTQVTVSS | high polyreactivity
21 | QVQLVESGGGLVQAGGSLRLSCSASGRTFVRNAMGWYRQAPGKERELVAAISSIGDSTYYADSVKGRFTISRDNAKNTVYLQMNSLKPEDTAVYYCNARGYVYYRMGYWGQGTQVTVSS | low polyreactivity
22 | QVQLVESGGGLVQAGGSLRLSCSASGSIFGSYAMGGYRQEPGNERELVAAISWRGGNTYYADSVKGRFTISRDNAKNTVYLQMNSLSPEDTAVYYCAAVAYSYGSYRRYYYWGLGTQVTVSS | high polyreactivity

Row | Sequence | polyreactivity (PSR sort gate)
23 | QVQLVESGGGLVQAGGSLRLSCSASGSIFPAYAMGWYRQAPGKERELVASITGSGGSTYYADSVKGRFTISRDNAKNTVYLQMNSLKPEDTAVYYCNARYYVYSATVDRYYHFYYCGQGTQVTVSS | high polyreactivity
24 | QVQLVESGGGLVQAGGSLRLSCSASGSIFSYYAMGWYRQAPGKERELVAAISRSGGSTYYADSVKGRFTISRDNAKNTVYLQMNSLKPEDTAVYYCAATRIHYPSYDYWGQGTQVTVSS | high polyreactivity
25 | QVQLVESGGGLVQAGGSLRLSCSASGSIFVGYAIGWYRQAPVKEMELDASISSGDDTYADSVKGRFTISRDNAKNSVYLQMNSLKPEDTAVYYCAKDSISVDCAYDYWVQGTQVTVSS | low polyreactivity
26 | QVQLVESGGGLVQAGGSLRLSCSASGSTFDGNAMVWYRQAPGKERELVAAITQRASNTYYADSVKGRFTISRDNAKNTVYLQMNSLKPEDTAVYYCNADFYVTSAEFYYWGQGSQVTVSS | low polyreactivity
27 | QVQLVESGGGLVQAGGSLRLSCSASGSTFTYYAMGWYRQAPVKERELVADIDFSGTSTYYADSVKGRFTVSRDNAKNTVYLQMNSLKPEDTAVYYCATDDYNWFDYDYWGQGTHVTVSS | low polyreactivity
28 | QVQLVESGGGLVQAGGSLRLSCSASGSTFYRYAMGWYRQAPGKERELVATITSGGSTHYADSVKGRFTISRDNAKNTVYLQMNSLKPEDTAVYYAATTSDWYTTINVVYRYYYWGQGTQVTVSS | high polyreactivity
29 | QVQLVESGGGLVQAGGSLRLSCSASGSTFYVYAMGWYRQAPGKERELVAAIDWSDGSTYYADSVKGRFTISRDNAKNTVYLQMNSLKPEDTAVYYCAADVGGGVDYVDYYYWGQGTQVTVSS | high polyreactivity
30 | QVQLVESGGGLVQAGGSLRLSCSASGSTFYYNAMGWYRQAPGKERELVARISRSGGSTYADSVKGRFTISRDNAKNTVYLQMNSLKPEDTAVYYCNAIGYTGPVAYPEYDYWGQGTQVTVSS | low polyreactivity
31 | QVQLVESGGGLVQAGGSLRLSCSASGSTSFYNAIGWYRQAPGKERELVAAISWSTGSTYYADSVKGRFTISRDNAKNTVYLQMTSLKPEDTAVYYCAAETGKNVDFVWVLAYPRLDYWGQGTQVTVSS | low polyreactivity
32 | QVQLVESGGGLVQAGGSLRLSCSASGYIFLRNAMGWYRQAPGKERALVAAIRRTGGSTYYADSVKGRFTISRDNSKNTVYLQMTSLKPEDTAVYYCDKRSYTGYEYWGQGTQVTVSS | low polyreactivity
33 | QVQLVESGGGLVQAGGSLRLSCSAYGRIFRGYAMGGYRQAPGKERELVASISGGDSTYADSVQGRFTISRDNAKNTVYLQMNSLKPEDTAVYYCADDNEWPRYDYWGQGTQVTVSS | low polyreactivity
34 | QVQLVESGGGLVQAGGSLRLSCSAYGSTLGYYAMGWYRQAPGKERELVAAIRYSDGNTYYADSVKGRFTISRDNAKNTVYLQMNSLKPEDTAVYYCAADGGYYGRDYWGQGTQVTVSS | high polyreactivity
35 | QVQLVESGGGLVQAGGSLRLSCSAYGYTFSHYAMGWYRQAPGKERELVAGITWSGGSTYYADSVKGRYTISRDNAKNTVYLQMNSLKPEDTSVYYCAAKYYWYYSYSGIPLFDYWGQGTQVTVSS | low polyreactivity
36 | QVQLVESGGGLVQAGGSLRLSCSSSGLIFRRNAMGWYRQAPGKERELVAVIDRGGRTNYADSVKGRFTISRDNAKNTVYLQMNSLKPEDTAVYYCDKRYASTSGYWGQGTQVTVSS | high polyreactivity
37 | QVQLVESGGGLVQAGGSLRLSCVASGFNFRGNAMGLYRQAPGKERELVATISSGGNTYYADSVKGRFTISRDNAKNTVYLQMNSLKPEDTAVYYCNASDGLPTKLNVYVEFDYWGQGTQVTVSS | low polyreactivity
38 | QVQLVESGGGLVQAGGSLRLSCVASGRIFSVYAMGWYRQAPAKERELVAGITSSGGSTYYADSVKGRFTISRDNAKNTVYLQMNSLKPEDTAVYYCAAVSEYYKGYDYWGQGTQVTVSS | high polyreactivity
39 | QVQLVESGGGLVQAGGSLRLSFAASGFTFGYYTMGWYRQAPGKERELVAAITSGGGTYYADSVKGRFTISRDNAKNTVYLQMNSLKPEDTAVYYCATTPVWYKVSRRYGYWGQGTQVTVSS | high polyreactivity
40 | QVQLVESGGGLVQAGGSLRLSFAASGFTFYPYTKGWYRQAPGKEREFVAAISWNCGSTYYADSVKGRFTISRDNAKHTVYLQMNRLKPEDTAVYYCAADFDASRYEYWGQGTQVTVSS | low polyreactivity
41 | QVQLVESGGGLVQAGGSLRLSFAASGINFRSYTMGWYRQAPGKERELVAGITRSGGSTYYADSVKGRFTISRDNAKNTVYLQMNSLKPEDSAVYYCAAKFRAGRSSYYWGHGTQVTVSS | high polyreactivity
42 | QVQLVESGGGLVQAGGSLRLSFAASGLIFDSNAMGWYRQAPGKERELVASTYYADSVKGRFTISRDNAKNTVYLQMNSLKPEDTAVYYCATTSVYKSVTYDYWGQGTQVTVSS | low polyreactivity
43 | QVQLVESGGGLVQAGGSLRLSFAASGRIFPFYAMGWYRQEPGKERELVAALSWNGGSTFYADSVKGRFTISRDNAKNSVYLQMNSLKPEDTAVYYCAADCYATYFLYDSCGQGTQVTVSS | low polyreactivity
